The record followed here is US9315838B2, “Method to increase algal biomass and enhance its quality for the production of fuel” (priority 2012, dated 2016).

Entries after “also recorded” stand apart in the source; their conditions may differ.

In assay [1] the test system is Chlamydomonas reinhardtii. As to the kind of experiment: TAG accumulation (ratio of fatty acids in TAG over total fatty acids) after N deprivation with DCMU. The format is cell-based. To be noted: 2 d of N deprivation, FIG. 8E. Here is the method:
FIG. 8. […] Two representative cultures per line are shown.
Strains and growth conditions.
(§1) Lipid extraction, thin-layer chromatography (TLC) of neutral lipids, transesterification and gas-liquid chromatography were done according to (Moellering and Benning 2010). Briefly, lipids were extracted from cell pellets with methanol, chloroform, 88% formic acid (2:1:0.1 by volume). To the extract 0.5 volume of 1M KCl, 0.2 M H3PO4 was added, mixed and phases were separated by low speed centrifugation. For TAG quantification, lipids were resolved by TLC on Silica G60 plates (EMD chemicals, #5721-7, http://www.emdchemicals.com) developed in petroleum ether-diethyl ether-acetic acid (80:20:1 by volume). Polar lipids were separated on the same plate using chloroform-methanol-acetic acid-H2O (75:13:9:3 by volume) as solvent. To analyze lyso-glycolipids during for the PGD1 assay, acetone-toluene-H2O (91:30:7.5 by volume) was used, instead. Brief exposure to iodine vapor was employed for visualization of lipids. Transesterification of each lipid and separation of fatty acid methyl esters by GLC were as previously described (Rossak et al. 1997). Transesterification was conducted on pellets with a known number of cells to determine the cellular total fatty acid content. Staining with α-naphtol (Benning et al. 1995) was used for the PGD1 assay to detect galactoglycerolipids.

The test system of assay [2] is Chlamydomonas reinhardtii pgd1 mutant. Briefly: Thiobarbituric acid reactive substances (TBARS) analysis following N deprivation. The note with it: DCMU 2 μM, FIG. 8D.
For assay [3] the test system is unchanged. Briefly: Chlorosis, chlorophyll content and cell viability of N-deprived cultures with DCMU. The note with it: DCMU 2 μM added to N-deprived (TAP-N) cultures.
A short description of assay [4]: PGD1 lipase assay on MGDG. Format: biochemical. As to the method:
as §1
BL21 (codon+) E. coli strains harboring the empty pMK1006 vector or the pMK1006-PGD1 construct were grown to log phase at 37° C. Isopropyl-β-D-thiogalactopyranoside was added to the final concentration of 0.5 mM to induce protein production. Cells were harvested after 3 hours of induction. To extract proteins, cells were resuspended in lysis buffer (20 mM Tris-HCl, pH 7.9, 10% glycerol, 150 mM NaCl, 1 mM dithiothreitol). The mixture was then frozen in liquid nitrogen and thawed at room temperature for three cycles and sonicated to lyse cells. Lysates were centrifuged at 21,000×g for 15 minutes to obtain inclusion bodies. Inclusion bodies were washed with 5 mL/g wash buffer (4 M urea, 0.5 M NaCl, 1 mM EDTA, 1 mg/ml sodium deoxycholate, 50 mM Tris-Cl pH 8.0) twice and denatured with solubilization buffer (8 M urea, 50 mM Tris-Cl pH 8.0, 10 mM dithiothreitol) by incubation at 50° C. for 20 min. Supernatant was collected after centrifugation at 21,000×g for 30 minutes and subjected to Ni-NTA affinity purification as described before (Lu and Benning 2009). His-tagged PGD1 protein was eluted with solubilization buffer containing 200 mM imidazole. […] After 1 hour incubation at 4° C., proteins were aliquoted and kept frozen at −80° C. Protein concentration was determined with Bio-Rad Protein Assay Dye Reagent Concentrate (http://www.bio-rad.com) according to the manufacturer's instructions.
To prepare lipid substrates from Chlamydomonas or E. coli cells, lipids were extracted from 48 hours N-deprived Chlamydomonas cells or IPTG induced E. coli cells expressing cucumber MGDG synthase (Shimojima et al. 1997) and resolved by polar TLC. Corresponding bands were isolated and lipids were recovered from silica gel by extraction with chloroform-methanol (1:1 by volume). For each PGD1 reaction, 75 nmol lipid substrates extracted from Chlamydomonas, or E. coli cells expressing the cucumber MGDG synthase were used. […] Per assay 10 μg refolded PGD1 protein (quantified as stated above) in 50 μL protein refolding buffer was added. […]

The nature of assay [5]: PGD1 lipase assay on DGDG. Format: biochemical, Chlamydomonas. Here is the method: (§2) Lipid extraction, thin-layer chromatography (TLC) of neutral lipids, transesterification and gas-liquid chromatography were done according to (Moellering and Benning 2010). Briefly, lipids were extracted from cell pellets with methanol, chloroform, 88% formic acid (2:1:0.1 by volume). To the extract 0.5 volume of 1M KCl, 0.2 M H3PO4 was added, mixed and phases were separated by low speed centrifugation. For TAG quantification, lipids were resolved by TLC on Silica G60 plates (EMD chemicals, #5721-7, http://www.emdchemicals.com) developed in petroleum ether-diethyl ether-acetic acid (80:20:1 by volume). Polar lipids were separated on the same plate using chloroform-methanol-acetic acid-H2O (75:13:9:3 by volume) as solvent. […]
(§3) BL21 (codon+) E. coli strains harboring the empty pMK1006 vector or the pMK1006-PGD1 construct were grown to log phase at 37° C. […] Protein concentration was determined with Bio-Rad Protein Assay Dye Reagent Concentrate (http://www.bio-rad.com) according to the manufacturer's instructions.
(§4) To prepare lipid substrates from Chlamydomonas or E. coli cells, lipids were extracted from 48 hours N-deprived Chlamydomonas cells or IPTG induced E. coli cells expressing cucumber MGDG synthase (Shimojima et al. 1997) and resolved by polar TLC. […] Per assay 10 μg refolded PGD1 protein (quantified as stated above) in 50 μL protein refolding buffer was added. […]

Assay [6] in a line: PGD1 lipase assay on other major membrane lipids. Format: biochemical, Chlamydomonas. Here is the method:
as §2, §3, §4

As for `CN(C)C(=O)Nc1ccc(Cl)c(Cl)c1` [DCMU, 3-(3,4-dichlorophenyl)-1,1-dimethylurea], in assay [1] (pgd1 mutant, DCMU 2 μM), the “pgd1 TAG phenotype” value is “did not rescue”. Moreover, in assay [1] (wild-type parental strain dw15-1, DCMU 2 μM), the “TAG levels of the wild-type parental strain” value was “decrease; also recorded: lower levels of TAG”. The “burst of TBARS in the pgd1 mutant” value in assay [2] is on record as “reverted”. Further, the chlorosis entry in assay [3] (FIG. 8A, B) is recorded as “suppressed”. In addition, the viability loss entry in assay [3] (FIG. 8C) is reported as “suppressed”.

B1: PGD1: recombinant Chlamydomonas galactoglycerolipid lipase (SEQ ID NO:1), His-tagged, purified from E. coli inclusion bodies and refolded (protein, listed as Chlamydomonas reinhardtii)
chain: MSQLLSHFVRVPTFASPDQVLREARDKERELQNARAPTDVSGFLAPVGVWELKHLRKLSSLTSLTYYMHLVTPRRLQLMHGLDLVVTSRACDVRPYEHNRTAEECGADGDGMAVSFAEARQVYAELKRGTGGASGSGSNGAAAAPVAVAAGVSNIVALPRELPFVPLPGGATEGGEAGAEAAAGAAAAAAAAAGEGTGPGAQGQGAGGLQLPLASTEAIGRMLRSPAEVVSAKLAEAALAASAAAAASPLGAAAESFYAGLASLPIPLAGGLVGANNKAANTLLAPPNGAAASSSGGGGGSGGAAAASEVVGSSRGAQGADPADPGAPNTSGKATAASIAAMATAELRSRRLGGTGPAKTGGSGAASSGSSSGGIGAGGMAPVTAGGMRLSPAATAFSAPPAATVSSLASTDAGTALVPVASSSAASLTFSSSSAYSCPSEWFVVDDPASATRIFVIQGSDTLDHWKLNLTFDPVVFEEPALGVKVHRGVYEAALVLYERFLPLVYEHLEASPFSKVTFTGHSIGGSMATLLMLMYRNRGVLPPHSIATVYTFGAPAVFCQQQQPAVADASSACCNGSSSNGSSTPASGSSSPRSGSPGSASASSLPAGSGSGAGGMSLWALGLSGFGMGGASLAGGGSTSAPSSTAGLASVDGGAVAAGGGGSGFNSSGLGFMSVEDPQAVSMPPGAAQAPSPASAPAPTAGPGHNSHSSHSKAGPAAAKSCACGVDGLLTRLGLAPHVVRNVVMARDVVPRAFACDYSLVADILKGWGPAFREHCCLNRHGRKHLYYFVGRMCILQPDAWHSFVGGDPEHPMLPPGPELYALAEPEDAAAARAHYPALSDLPILNAVTSNGHTRGSGGNGANAAVNAAVNASGPSAAASGGGGGSQQPTAAAAVPSTANFGTALVASAAQRERDARGGGSRLQPRSVVEAVWEIMDNPHPLETLADPGAYLASGSISRYHNPEHYTKALGRLTHLKRLAERRQHPHGQAQQKQAQPQAGEGGIRSMFAGRNIRSFGGGVRSGSGSGSAGRRGLLHQQAASNGTAADAVLASGAAGAAAAAWGSAPQLADLVSGNGGRASAGYEGGVWDSSDGLDLHLSDFMGASAVGAADPHACR
modifications: His tag
For the molecule B1, the “apparent MGDG concentration up to which hydrolysis was linear in reaction velocity” value in assay [4] (E. coli-derived MGDG, 3 hours incubation, FIG. 15B) is at most 300 µM. In addition, in assay [4] (E. coli-derived MGDG, FIG. 15A), the “time at which lyso-MGDG was detectable” value is 30 min. Further, the “positional preference of acyl group hydrolysis” value in assay [4] (E. coli-derived MGDG, compared with Rhizopus lipase digestion, FIG. 7H, 7I) is on record as “prefers acyl groups at the sn-1 position”. Besides, the “activity on E. coli-derived MGDG versus mature MGDG from Chlamydomonas” value in assay [4] (intensity of the lyso-MGDG band, FIG. 7B) is reported as “more active”. Besides, the lyso-MGDG product generated result in assay [4] (mature MGDG isolated from Chlamydomonas (predominantly 18:3/16:4), TLC, FIG. 7B) was “rather faint”. The “formation of lyso-DGDG” value in assay [5] (DGDG extracted from Chlamydomonas, sugar-specific staining, FIG. 7C) is on record as “no formation of lyso-DGDG was detected”. In addition, in assay [5] (E. coli-derived MGDG and Chlamydomonas-derived DGDG offered in equal amounts), the “product formed in competition experiment” value is listed as “only lyso-MGDG was formed”. In assay [6] (iodine staining, compared with Rhizopus lipase, FIGS. 16A and 16B), the “generation of lyso-DGTS and lyso-PtdEtn” value is on record as “detectable by iodine staining, but at much lower levels”. Moreover, the Lyso-SQDG hydrolysis entry in assay [6] (sugar-specific staining, FIG. 16D) was “not detectable”.
